In patent US20030171295A1:

Biological target: human melanocortin 1 receptor (hMC1-r transfected COS-7 cells) (human) (UniProt Q01726)
Test: Scatchard analysis on MC1-r transfected COS7 cells, culture supernatant with up to 30 nM AP-Ag

- Kd: 20 to 30 nM
Substance: AP-Ag, truncated agouti protein containing the cysteine-rich domain tagged with alkaline phosphatase at its N-terminal (from UniProt Q03288) (ligand)
